Test results taken from patent US20160051695A1.

Tests used:
[1] = target: human HER2 (ErbB2), human epidermal growth factor receptor 2 protein (human) (UniProt P04626); test: flow cytometry on SKOV-3 cells, background without primary antibody
[2] = target: human HER2 (ErbB2), human epidermal growth factor receptor 2 protein (human) (UniProt P04626); test: flow cytometry on JIMT-1 cells, background without primary antibody
[3] = target: Jurkat cells (human T leukemia cells; do not express human HER2); test: flow cytometry on HER2-negative Jurkat cells, background without primary antibody

## goat F(ab')2-anti-human IgG (H+L)-RPE (Southern Biotech, Cat. No. 2043-09)
[1]
  MFI: 8
[2]
  MFI: 3.29
[3]
  MFI: 9
